B1: Cyclin-dependent kinase 4 (Homo sapiens), P11802 (parent)
chain: MATSRYEPVAEIGVGAYGTVYKARDPHSGHFVALKSVRVPNGGGGGGGLPISTVREVALLRRLEAFEHPNVVRLMDVCATSRTDREIKVTLVFEHVDQDLRTYLDKAPPPGLPAETIKDLMRQFLRGLDFLHANCIVHRDLKPENILVTSGGTVKLADFGLARIYSYQMALTPVVVTLWYRAPEVLLQSTYATPVDMWSVGCIFAEMFRRKPLFCGNSEADQLGKIFDLIGLPPEDDWPRDVSLPRGAFPPRGPRPVQSVVPEMEESGAQLLLEMLTFNPHKRISAFRALQHSYLHKDEGNPE
B2: Interleukin-1 receptor-associated kinase 4 (Homo sapiens), Q9NWZ3 (parent)
chain: MNKPITPSTYVRCLNVGLIRKLSDFIDPQEGWKKLAVAIKKPSGDDRYNQFHIRRFEALLQTGKSPTSELLFDWGTTNCTVGDLVDLLIQNEFFAPASLLLPDAVPKTANTLPSKEAITVQQKQMPFCDKDRTLMTPVQNLEQSYMPPDSSSPENKSLEVSDTRFHSFSFYELKNVTNNFDERPISVGGNKMGEGGFGVVYKGYVNNTTVAVKKLAAMVDITTEELKQQFDQEIKVMAKCQHENLVELLGFSSDGDDLCLVYVYMPNGSLLDRLSCLDGTPPLSWHMRCKIAQGAANGINFLHENHHIHRDIKSANILLDEAFTAKISDFGLARASEKFAQTVMTSRIVGTTAYMAPEALRGEITPKSDIYSFGVVLLEIITGLPAVDEHREPQLLLDIKEEIEDEEKTIEDYIDKKMNDADSTSVEAMYSVASQCLHEKKNKRPDIKKVQQLLQEMTAS
B3: DNA mismatch repair protein Mlh1 (Homo sapiens), P40692 (parent)
chain: MSFVAGVIRRLDETVVNRIAAGEVIQRPANAIKEMIENCLDAKSTSIQVIVKEGGLKLIQIQDNGTGIRKEDLDIVCERFTTSKLQSFEDLASISTYGFRGEALASISHVAHVTITTKTADGKCAYRASYSDGKLKAPPKPCAGNQGTQITVEDLFYNIATRRKALKNPSEEYGKILEVVGRYSVHNAGISFSVKKQGETVADVRTLPNASTVDNIRSIFGNAVSRELIEIGCEDKTLAFKMNGYISNANYSVKKCIFLLFINHRLVESTSLRKAIETVYAAYLPKNTHPFLYLSLEISPQNVDVNVHPTKHEVHFLHEESILERVQQHIESKLLGSNSSRMYFTQTLLPGLAGPSGEMVKSTTSLTSSSTSGSSDKVYAHQMVRTDSREQKLDAFLQPLSKPLSSQPQAIVTEDKTDISSGRARQQDEEMLELPAPAEVAAKNQSLEGDTTKGTSEMSEKRGPTSSNPRKRHREDSDVEMVEDDSRKEMTAACTPRRRIINLTSVLSLQEEINEQGHEVLREMLHNHSFVGCVNPQWALAQHQTKLYLLNTTKLSEELFYQILIYDFANFGVLRLSEPAPLFDLAMLALDSPESGWTEEDGPKEGLAEYIVEFLKKKAEMLADYFSLEIDEEGNLIGLPLLIDNYVPPLEGLPIFILRLATEVNWDEEKECFESLSKECAMFYSIRKQYISEESTLSGQQSEVPGSIPNSWKWTVEHIVYKALRSHILPPKHFTEDGNILQLANLPDLYKVFERC
partner: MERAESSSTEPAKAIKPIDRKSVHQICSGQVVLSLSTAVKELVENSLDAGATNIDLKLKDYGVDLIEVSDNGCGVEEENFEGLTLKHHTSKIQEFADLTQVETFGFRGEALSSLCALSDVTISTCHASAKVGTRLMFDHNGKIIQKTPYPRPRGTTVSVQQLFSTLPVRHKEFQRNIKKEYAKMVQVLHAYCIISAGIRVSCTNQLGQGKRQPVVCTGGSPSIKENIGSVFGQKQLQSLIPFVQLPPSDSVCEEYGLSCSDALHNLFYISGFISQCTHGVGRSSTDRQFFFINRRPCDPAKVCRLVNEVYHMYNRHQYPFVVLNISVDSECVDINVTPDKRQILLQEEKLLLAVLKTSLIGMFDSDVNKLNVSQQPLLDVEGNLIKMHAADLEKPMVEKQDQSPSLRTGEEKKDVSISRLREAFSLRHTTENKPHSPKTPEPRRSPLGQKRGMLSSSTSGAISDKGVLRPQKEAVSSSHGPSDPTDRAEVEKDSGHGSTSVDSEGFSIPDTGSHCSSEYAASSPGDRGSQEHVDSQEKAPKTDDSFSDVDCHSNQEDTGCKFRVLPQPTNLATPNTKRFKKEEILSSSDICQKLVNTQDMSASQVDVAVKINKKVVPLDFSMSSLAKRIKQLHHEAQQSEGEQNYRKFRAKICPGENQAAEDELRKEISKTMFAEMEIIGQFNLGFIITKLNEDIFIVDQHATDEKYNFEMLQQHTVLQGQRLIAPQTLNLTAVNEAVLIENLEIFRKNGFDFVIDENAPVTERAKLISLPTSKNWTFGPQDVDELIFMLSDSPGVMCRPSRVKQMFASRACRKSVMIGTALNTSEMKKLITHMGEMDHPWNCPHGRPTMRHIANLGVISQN
B4: DNA mismatch repair protein Mlh1 (Homo sapiens), P40692 (parent)
chain: B3 chain
B5: Mothers against decapentaplegic homolog 4 (Homo sapiens), Q13485 (parent)
chain: MDNMSITNTPTSNDACLSIVHSLMCHRQGGESETFAKRAIESLVKKLKEKKDELDSLITAITTNGAHPSKCVTIQRTLDGRLQVAGRKGFPHVIYARLWRWPDLHKNELKHVKYCQYAFDLKCDSVCVNPYHYERVVSPGIDLSGLTLQSNAPSSMMVKDEYVHDFEGQPSLSTEGHSIQTIQHPPSNRASTETYSTPALLAPSESNATSTANFPNIPVASTSQPASILGGSHSEGLLQIASGPQPGQQQNGFTGQPATYHHNSTTTWTGSRTAPYTPNLPHHQNGHLQHHPPMPPHPGHYWPVHNELAFQPPISNHPAPEYWCSIAYFEMDVQVGETFKVPSSCPIVTVDGYVDPSGGDRFCLGQLSNVHRTEAIERARLHIGKGVQLECKGEGDVWVRCLSDHAVFVQSYYLDREAGRAPGDAVHKIYPSAYIKVFDLRQCHRQMQQQAATAQAAAAAQAAAVAGNIPGPGSVGGIAPAISLSAAAGIGVDDLRRLCILRMSFVKGWGPDYPRQSIKETPCWIEIHLHRALQLLDEVLHTMPIADPQPLD
partner: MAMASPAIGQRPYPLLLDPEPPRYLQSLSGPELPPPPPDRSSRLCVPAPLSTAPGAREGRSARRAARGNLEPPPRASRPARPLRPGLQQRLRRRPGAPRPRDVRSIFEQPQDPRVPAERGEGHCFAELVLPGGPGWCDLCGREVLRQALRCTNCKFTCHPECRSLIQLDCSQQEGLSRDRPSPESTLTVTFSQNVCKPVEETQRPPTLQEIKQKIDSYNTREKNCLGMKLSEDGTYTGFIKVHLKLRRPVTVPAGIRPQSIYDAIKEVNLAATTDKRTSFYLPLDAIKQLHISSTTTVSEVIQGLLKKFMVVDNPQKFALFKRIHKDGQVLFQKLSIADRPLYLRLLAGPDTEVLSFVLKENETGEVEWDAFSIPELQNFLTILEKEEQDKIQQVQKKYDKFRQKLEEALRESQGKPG
B6: Mothers against decapentaplegic homolog 4 (Homo sapiens), Q13485 (parent)
chain: B5 chain
partner: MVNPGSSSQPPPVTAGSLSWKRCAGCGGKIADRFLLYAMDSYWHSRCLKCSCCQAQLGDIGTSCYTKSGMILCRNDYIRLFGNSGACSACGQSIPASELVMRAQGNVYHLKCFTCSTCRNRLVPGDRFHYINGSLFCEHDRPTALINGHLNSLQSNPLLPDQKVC

Variants of: B1
Details: with ccnd1_human CCND1, P24385

Row | effect of a mutation on the interaction | Variant
1 | with no effect | MATSRYEPVAEIGVGAYGTVYKARDPHSGHFVALKSVRVPSGGGGGGGLPISTVREVALLRRLEAFEHPNVVRLMDVCATSRTDREIKVTLVFEHVDQDLRTYLDKAPPPGLPAETIKDLMRQFLRGLDFLHANCIVHRDLKPENILVTSGGTVKLADFGLARIYSYQMALTPVVVTLWYRAPEVLLQSTYATPVDMWSVGCIFAEMFRRKPLFCGNSEADQLGKIFDLIGLPPEDDWPRDVSLPRGAFPPRGPRPVQSVVPEMEESGAQLLLEMLTFNPHKRISAFRALQHSYLHKDEGNPE [N41S]
2 | with no effect | MATSRYEPVAEIGVGAYGTVYKARDPHSGHFVALKSVRVPNGGGGGGGLPINTVREVALLRRLEAFEHPNVVRLMDVCATSRTDREIKVTLVFEHVDQDLRTYLDKAPPPGLPAETIKDLMRQFLRGLDFLHANCIVHRDLKPENILVTSGGTVKLADFGLARIYSYQMALTPVVVTLWYRAPEVLLQSTYATPVDMWSVGCIFAEMFRRKPLFCGNSEADQLGKIFDLIGLPPEDDWPRDVSLPRGAFPPRGPRPVQSVVPEMEESGAQLLLEMLTFNPHKRISAFRALQHSYLHKDEGNPE [S52N]

Variants of: B2
Details: with myd88_human MYD88, Q99836

Row | effect of a mutation on the interaction | Variant
3 | with no effect | MNKPITPSTYVRCLNVGLIRKLSDFIDPQEGWKKLAVAIKKPSGDDRYNQFHIRRFEALLQTGKSPTSELLFDWGTTNCTVGDLVDLLIQNEFFAPASLLLPDAVPKTANTLPSKEAITVQQKQMPFCDKDRTLMTPVQNLEQSYMPPDSSSPENKSLEVSDTRFHSFSFYELKNVTNNFDERPISVGGNKMGEGGFGVVYKGYVNNTTVAVKKLAAMVDITTEELKQQFDQEIKVMAKCQHENLVELLGFSSDGDDLCLVYVYMPNGSLLDRLSCLDGTPPLSWHMRCKIAQGAANGINFLHENHHIHRDIKSANILLDEAFTAKISDFGLARASEKFAQTVMTSRIVGTTAYMAPEALRGEITPKSDIYSFGVVLLEIITGLPAVDEHREPQLLLDIKEEIEDEEKTIEDYIDKKMNDADSTSVETMYSVASQCLHEKKNKRPDIKKVQQLLQEMTAS [A428T]
4 | disrupting interaction strength | MNKPITPSTYVCCLNVGLIRKLSDFIDPQEGWKKLAVAIKKPSGDDRYNQFHIRRFEALLQTGKSPTSELLFDWGTTNCTVGDLVDLLIQNEFFAPASLLLPDAVPKTANTLPSKEAITVQQKQMPFCDKDRTLMTPVQNLEQSYMPPDSSSPENKSLEVSDTRFHSFSFYELKNVTNNFDERPISVGGNKMGEGGFGVVYKGYVNNTTVAVKKLAAMVDITTEELKQQFDQEIKVMAKCQHENLVELLGFSSDGDDLCLVYVYMPNGSLLDRLSCLDGTPPLSWHMRCKIAQGAANGINFLHENHHIHRDIKSANILLDEAFTAKISDFGLARASEKFAQTVMTSRIVGTTAYMAPEALRGEITPKSDIYSFGVVLLEIITGLPAVDEHREPQLLLDIKEEIEDEEKTIEDYIDKKMNDADSTSVEAMYSVASQCLHEKKNKRPDIKKVQQLLQEMTAS [R12C]
5 | disrupting interaction strength | MNKPITPSTYVRCLNVGLIRKLSDFIDPQEGWKKLAVAIKKPSGDDRYNQFHIRRFEALLQTGKSPTSELLFDWGTTNCTVGDLVDLLIQNEFFAPASLLLPDAVPKTANTLPSKEAITVQQKQMPFCDKDRTLMTPVQNLEQSYMPPDSSSPENKSLEVSDTRFHSFSFYELKNVTNNFDERPISVGGNKMGEGGFGVVYKGYVNNTTVAVKKLAAMVDITTEELKQQFDQEIKVMAKCQHENLVELLGFSSDGDDLCLVYVYMPNGSLLDRLSCLDGTPPLSWHMRCKIAQGAANDINFLHENHHIHRDIKSANILLDEAFTAKISDFGLARASEKFAQTVMTSRIVGTTAYMAPEALRGEITPKSDIYSFGVVLLEIITGLPAVDEHREPQLLLDIKEEIEDEEKTIEDYIDKKMNDADSTSVEAMYSVASQCLHEKKNKRPDIKKVQQLLQEMTAS [G298D]

Variants of: B3
Details: with pms2_human PMS2, P54278

Row | effect of a mutation on the interaction | Variant
6 | disrupting interaction strength | I107R

Variants of: B4
Details: with hsp7c_human HSPA8, P11142

Row | effect of a mutation on the interaction | Variant
7 | increasing interaction strength | I107R

Variants of: B5
Details: with rasf5_human RASSF5, Q8WWW0

Row | effect of a mutation on the interaction | Variant
8 | with no effect | Y353S
9 | with no effect | N13S
10 | with no effect | R361C

Variants of: B6
Details: with lmo4_human LMO4, P61968

Row | effect of a mutation on the interaction | Variant
11 | with no effect | N13S
12 | with no effect | Y353S
13 | with no effect | R361C

Source: IntAct's records for PubMed 25502805
